The values below come from publication PMC7021899, “N-terminal domain of the architectural protein CTCF has similar structural organization and ability to self-association in bilaterian organisms” (Scientific Reports, 2020).

A word on the stoichiometry N: it is the number of molecules, sites or subunits per partner or assembly.

Data set [1] deals with Thioredoxin-tagged N-terminal domain of Drosophila virilis CTCF (1-144 aa) (Drosophila virilis). As to the kind of experiment: cross-linking; Thioredoxin-tagged NTDs, increasing concentrations of glutaraldehyde.
The target in data set [2] is N-terminal domain of Drosophila virilis CTCF (1-144 aa), without Thioredoxin (Drosophila virilis). Briefly: SAXS; BM29 BioSAXS beamline (ESRF), 277 K, at least two concentrations; molecular mass from extrapolated I0 and protein standards.
Data set [3] deals with the molecule itself. As to the kind of experiment: cross-linking; Thioredoxin-tagged NTDs, increasing concentrations of glutaraldehyde.
Data set [4] deals with the molecule itself. Briefly: SAXS; BM29 BioSAXS beamline (ESRF), 277 K, at least two concentrations; molecular mass from extrapolated I0 and protein standards.

As to “Thioredoxin-tagged N-terminal domain of Drosophila virilis CTCF (1-144 aa) (domain or fragment)”, in data set [1], the stoichiometry N worked out at 2.

For “N-terminal domain of Drosophila virilis CTCF (1-144 aa), without Thioredoxin (domain or fragment)”, in data set [2], the stoichiometry N is 2.

B1: Thioredoxin-tagged N-terminal domain of Drosophila melanogaster CTCF (1-163 aa) (domain or fragment, UniProt Q9VS55 1-163, looked up)
chain: MPRRTKKDEDPEDLQTFLNNFHKEIEGNSDEKVVNTILEAISAEAIDLDENGAEAGGSKPMEEAEADLDHAEEAEEEEEDDEDKYFIDDEGNCYIKTTPKKQKELQKKLKQAAAKPGKATRSVVSTATNKSINLRPAKSTPKATTSKPPPEPKAISVRPARAA
notes: CTCF, Drosophila melanogaster, N-terminal domain, residues 1-163; also called dmCTCF NTD; Thioredoxin-tagged Drosophila CTCF NTD
Turning to B1, the “stoichiometry N” value in data set [3] was 2.

B2: N-terminal domain of Drosophila melanogaster CTCF (1-163 aa), without Thioredoxin (domain or fragment, UniProt Q9VS55 1-163, looked up)
chain: MPRRTKKDEDPEDLQTFLNNFHKEIEGNSDEKVVNTILEAISAEAIDLDENGAEAGGSKPMEEAEADLDHAEEAEEEEEDDEDKYFIDDEGNCYIKTTPKKQKELQKKLKQAAAKPGKATRSVVSTATNKSINLRPAKSTPKATTSKPPPEPKAISVRPARAA
notes: Modified pET32a(+) with TEV-cleavable Thioredoxin-6xHis-tag. 'Without Thioredoxin' is said for SEC; for SAXS and DLS the tag state is inferred from the printed monomer mass (18 kDa); also called dmCTCF NTD; dmCTCF-NTD
For B2, the “stoichiometry N” value in data set [4] was 4.
